Data reported in patent publication US20200079833A1 (AstraZeneca / MedImmune, published 2020).
Starred links: 1 amine or outer side, 2 acyl side, 3 side chain; linkers in the order of their positions; H or OH if unused. Non-standard residues stand in square brackets, D forms with d. Groups on a side chain read outwards from the residue. Primed or numbered codes have the meaning given here. No end group written: not given here. *: point of attachment. γGlu = O=C(O)[C@H](CCC(=O)[*:2])N[*:1]; Stearoyl = CCCCCCCCCCCCCCCCCC(=O)*; Palmitoyl = CCCCCCCCCCCCCCCC(=O)*; αMeF = C[C@](N)(Cc1ccccc1)C(=O)O; αMeK = C[C@](N)(CCCCN)C(=O)O; Lauroyl = CCCCCCCCCCCC(=O)*; αMeS = C[C@](N)(CO)C(=O)O; PEG2′ = not defined here; Aib = CC(C)(N)C(=O)O; Ahx = NCCCCCC(=O)O

T1: glucose-dependent insulinotropic peptide (gastric inhibitory polypeptide) receptor (GIPR), primary cAMP assay (human, UniProt P48546 22-466)
T1 sequence (looked up): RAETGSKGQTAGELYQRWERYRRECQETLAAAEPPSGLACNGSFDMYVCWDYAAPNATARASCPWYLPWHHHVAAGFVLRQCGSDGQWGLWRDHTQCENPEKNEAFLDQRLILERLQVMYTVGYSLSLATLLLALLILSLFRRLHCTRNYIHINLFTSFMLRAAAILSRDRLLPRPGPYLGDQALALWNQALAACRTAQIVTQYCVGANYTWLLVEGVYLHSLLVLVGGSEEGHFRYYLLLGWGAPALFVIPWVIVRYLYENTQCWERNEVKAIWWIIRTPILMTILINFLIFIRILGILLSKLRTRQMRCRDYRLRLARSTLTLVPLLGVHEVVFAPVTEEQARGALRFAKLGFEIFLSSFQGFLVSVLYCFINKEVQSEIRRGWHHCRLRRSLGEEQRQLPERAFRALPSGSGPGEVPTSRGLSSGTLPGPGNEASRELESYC

T2: glucose-dependent insulinotropic peptide (gastric inhibitory polypeptide) receptor (GIPR) (human, UniProt P48546 22-466)
T2 sequence (looked up): T1 sequence (looked up)

B1: SEQ ID NO 196 (peptide)
peptide: H[Aib]EGS[αMeF]TSDV[αMeS]S[αMeF]LEGEAA[αMeK]E[αMeF]IA[αMeF]VVK([Ahx-Ahx-Ahx-Stearoyl])GG-NH2
modifications: N-terminus assumed
SMILES: CCCCCCCCCCCCCCCCCC(=O)NCCCCCC(=O)NCCCCCC(=O)NCCCCCC(=O)NCCCC[C@H](NC(=O)[C@@H](NC(=O)[C@@H](NC(=O)[C@](C)(Cc1ccccc1)NC(=O)[C@H](C)NC(=O)[C@@H](NC(=O)[C@](C)(Cc1ccccc1)NC(=O)[C@H](CCC(=O)O)NC(=O)[C@](C)(CCCCN)NC(=O)[C@H](C)NC(=O)[C@H](C)NC(=O)[C@H](CCC(=O)O)NC(=O)CNC(=O)[C@H](CCC(=O)O)NC(=O)[C@H](CC(C)C)NC(=O)[C@](C)(Cc1ccccc1)NC(=O)[C@H](CO)NC(=O)[C@](C)(CO)NC(=O)[C@@H](NC(=O)[C@H](CC(=O)O)NC(=O)[C@H](CO)NC(=O)[C@@H](NC(=O)[C@](C)(Cc1ccccc1)NC(=O)[C@H](CO)NC(=O)CNC(=O)[C@H](CCC(=O)O)NC(=O)C(C)(C)NC(=O)[C@@H](N)Cc1c[nH]cn1)[C@@H](C)O)C(C)C)[C@@H](C)CC)C(C)C)C(C)C)C(=O)NCC(=O)NCC(N)=O

target: T1, glucose-dependent insulinotropic …; experiment: cell-based or functional assay

| Binder | Primary assay EC50 (cAMP), n1 [nM] | Primary assay EC50 (cAMP), n2 [nM] |
| --- | --- | --- |
| H[Aib]EGTFTSDVSK([PEG2′-PEG2′-γGlu-Palmitoyl])FLEGEAAEEFIK([PEG2′-PEG2′-γGlu-Palmitoyl])FVVEGG-NH2 [SEQ ID NO: 245] | 21.6 | 21.6 |
| H[Aib]EGTFTSDVSK([PEG2′-PEG2′-γGlu-Palmitoyl])YLEGEAAEEFIK([PEG2′-PEG2′-γGlu-Palmitoyl])WVVEGG-NH2 [SEQ ID NO: 242] | 21.4 | 21.4 |
| H[Aib]EGTFTSDVSK([PEG2′-PEG2′-γGlu-Palmitoyl])YLEGEAAEEFIK([PEG2′-PEG2′-γGlu-Palmitoyl])FVVEGG-NH2 [SEQ ID NO: 244] | 21.6 | 21.6 |
| H[Aib]EGS[αMeF]TSDVSK([PEG2′-PEG2′-γGlu-Palmitoyl])YLEGEAA[αMeK]EFIAK([PEG2′-PEG2′-γGlu-Palmitoyl])VVEGG-NH2 [SEQ ID NO: 254] | 21.9 | 21.9 |
| H[Aib]EGS[αMeF]TSDK([PEG2′-PEG2′-γGlu-Lauroyl])SSYLEGEAA[αMeK]EFIAWK([PEG2′-PEG2′-γGlu-Lauroyl])VEGG-NH2 [SEQ ID NO: 258] | 22.3 | 22.3 |
| H[Aib]EGTFTSDVSK([PEG2′-PEG2′-γGlu-Palmitoyl])FLEGEAAEEFIK([PEG2′-PEG2′-γGlu-Palmitoyl])WVVEGG-NH2 [SEQ ID NO: 243] | 21.5 | 21.5 |
| H[Aib]EGS[αMeF]TSDVSK([PEG2′-PEG2′-γGlu-Palmitoyl])YLEGEAA[αMeK]EFIAWK([PEG2′-PEG2′-γGlu-Palmitoyl])VEGG-NH2 [SEQ ID NO: 255] | 21.5 | 21.5 |

target: glucagon receptor (GCGR), primary cAMP assay (human, UniProt P47871 26-477); experiment: cell-based or functional assay
Sequence (P47871 26-477): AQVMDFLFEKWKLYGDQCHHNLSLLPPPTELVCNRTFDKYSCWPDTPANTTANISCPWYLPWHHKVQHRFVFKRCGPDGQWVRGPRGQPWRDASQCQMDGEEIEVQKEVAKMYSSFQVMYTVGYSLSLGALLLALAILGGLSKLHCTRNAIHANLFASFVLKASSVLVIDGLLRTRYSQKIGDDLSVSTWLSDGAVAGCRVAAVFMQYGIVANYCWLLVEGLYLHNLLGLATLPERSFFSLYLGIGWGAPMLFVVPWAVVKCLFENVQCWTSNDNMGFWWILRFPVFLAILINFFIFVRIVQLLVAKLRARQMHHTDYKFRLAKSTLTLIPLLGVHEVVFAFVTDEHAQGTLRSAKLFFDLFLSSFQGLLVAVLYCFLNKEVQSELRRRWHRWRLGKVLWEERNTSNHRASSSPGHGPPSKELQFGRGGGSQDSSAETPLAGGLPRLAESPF

| Binder | Primary assay EC50 (cAMP), n1 [nM] | Primary assay EC50 (cAMP), n2 [nM] |
| --- | --- | --- |
| H[Aib]EGTFTSDVSK([PEG2′-PEG2′-γGlu-Palmitoyl])FLEGEAAEEFIK([PEG2′-PEG2′-γGlu-Palmitoyl])FVVEGG-NH2 [SEQ ID NO: 245] | 21.6 | 21.6 |
| H[Aib]EGTFTSDVSK([PEG2′-PEG2′-γGlu-Palmitoyl])YLEGEAAEEFIK([PEG2′-PEG2′-γGlu-Palmitoyl])WVVEGG-NH2 [SEQ ID NO: 242] | 21.4 | 21.4 |
| H[Aib]EGTFTSDVSK([PEG2′-PEG2′-γGlu-Palmitoyl])YLEGEAAEEFIK([PEG2′-PEG2′-γGlu-Palmitoyl])FVVEGG-NH2 [SEQ ID NO: 244] | 21.6 | 21.6 |
| H[Aib]EGS[αMeF]TSDVSK([PEG2′-PEG2′-γGlu-Palmitoyl])YLEGEAA[αMeK]EFIAK([PEG2′-PEG2′-γGlu-Palmitoyl])VVEGG-NH2 [SEQ ID NO: 254] | 21.9 | 21.9 |
| H[Aib]EGS[αMeF]TSDK([PEG2′-PEG2′-γGlu-Lauroyl])SSYLEGEAA[αMeK]EFIAWK([PEG2′-PEG2′-γGlu-Lauroyl])VEGG-NH2 [SEQ ID NO: 258] | 22.3 | 22.3 |
| H[Aib]EGTFTSDVSK([PEG2′-PEG2′-γGlu-Palmitoyl])FLEGEAAEEFIK([PEG2′-PEG2′-γGlu-Palmitoyl])WVVEGG-NH2 [SEQ ID NO: 243] | 21.5 | 21.5 |
| H[Aib]EGS[αMeF]TSDVSK([PEG2′-PEG2′-γGlu-Palmitoyl])YLEGEAA[αMeK]EFIAWK([PEG2′-PEG2′-γGlu-Palmitoyl])VEGG-NH2 [SEQ ID NO: 255] | 21.5 | 21.5 |

target: GLP-1 receptor (GLP-1R), primary cAMP assay (human, UniProt P43220 24-463); experiment: cell-based or functional assay

| Binder | Primary assay EC50 (cAMP) Mean [nM] | Primary assay EC50 (cAMP), n1 [nM] | Primary assay EC50 (cAMP), n2 [nM] |
| --- | --- | --- | --- |
| H[Aib]EGTFTSDVSK([PEG2′-PEG2′-γGlu-Palmitoyl])FLEGEAAEEFIK([PEG2′-PEG2′-γGlu-Palmitoyl])FVVEGG-NH2 [SEQ ID NO: 245] | 11.2 | 12.3 | 10.2 |
| H[Aib]EGTFTSDVSK([PEG2′-PEG2′-γGlu-Palmitoyl])YLEGEAAEEFIK([PEG2′-PEG2′-γGlu-Palmitoyl])WVVEGG-NH2 [SEQ ID NO: 242] | 3.85 | 3.58 | 4.11 |
| H[Aib]EGTFTSDVSK([PEG2′-PEG2′-γGlu-Palmitoyl])YLEGEAAEEFIK([PEG2′-PEG2′-γGlu-Palmitoyl])FVVEGG-NH2 [SEQ ID NO: 244] | 12.3 | 7.77 | 16.9 |
| H[Aib]EGS[αMeF]TSDVSK([PEG2′-PEG2′-γGlu-Palmitoyl])YLEGEAA[αMeK]EFIAK([PEG2′-PEG2′-γGlu-Palmitoyl])VVEGG-NH2 [SEQ ID NO: 254] | 0.205 | 0.223 | 0.186 |
| H[Aib]EGS[αMeF]TSDK([PEG2′-PEG2′-γGlu-Lauroyl])SSYLEGEAA[αMeK]EFIAWK([PEG2′-PEG2′-γGlu-Lauroyl])VEGG-NH2 [SEQ ID NO: 258] | 0.0923 | 0.0596 | 0.125 |
| H[Aib]EGTFTSDVSK([PEG2′-PEG2′-γGlu-Palmitoyl])FLEGEAAEEFIK([PEG2′-PEG2′-γGlu-Palmitoyl])WVVEGG-NH2 [SEQ ID NO: 243] | 3.21 | 2.93 | 3.48 |
| H[Aib]EGS[αMeF]TSDVSK([PEG2′-PEG2′-γGlu-Palmitoyl])YLEGEAA[αMeK]EFIAWK([PEG2′-PEG2′-γGlu-Palmitoyl])VEGG-NH2 [SEQ ID NO: 255] | 0.463 | 0.532 | 0.393 |

target: glucagon receptor (GCGR) (human, UniProt P47871 26-477); experiment: cell-based or functional assay
Sequence (P47871 26-477): as above

| Binder | Primary assay EC50 (cAMP), Gluc-R, first run [nM] | Primary assay EC50 (cAMP), Gluc-R, second run [nM] |
| --- | --- | --- |
| H[Aib]EGS[αMeF]TSDV[αMeS]S[αMeF]LEGEAA[αMeK]E[αMeF]IA[αMeF]VVK([PEG2′-PEG2′-Stearoyl])GG-NH2 [SEQ ID NO 198] | 26 | 26 |
| B1 | 26 | 26 |
| H[Aib]EGS[αMeF]TSDV[αMeS]S[αMeF]LEGEAA[αMeK]E[αMeF]IA[αMeF]VVK([PEG2′-Stearoyl])GG-NH2 [SEQ ID NO 197] | 27 | 27 |
| H[Aib]EGS[αMeF]TSDV[αMeS]S[αMeF]LEGEAA[αMeK]E[αMeF]IA[αMeF]VVK([PEG2′-PEG2′-PEG2′-Stearoyl])GG-NH2 [SEQ ID NO 199] | 25 | 25 |

target: T2, glucose-dependent insulinotropic …; experiment: cell-based or functional assay

| Binder | Primary assay EC50 (cAMP), GIP-R, first run [nM] | Primary assay EC50 (cAMP), GIP-R, second run [nM] |
| --- | --- | --- |
| H[Aib]EGS[αMeF]TSDV[αMeS]S[αMeF]LEGEAA[αMeK]E[αMeF]IA[αMeF]VVK([PEG2′-PEG2′-Stearoyl])GG-NH2 [SEQ ID NO 198] | 26 | 26 |
| B1 | 26 | 26 |
| H[Aib]EGS[αMeF]TSDV[αMeS]S[αMeF]LEGEAA[αMeK]E[αMeF]IA[αMeF]VVK([PEG2′-Stearoyl])GG-NH2 [SEQ ID NO 197] | 27 | 27 |
| H[Aib]EGS[αMeF]TSDV[αMeS]S[αMeF]LEGEAA[αMeK]E[αMeF]IA[αMeF]VVK([PEG2′-PEG2′-PEG2′-Stearoyl])GG-NH2 [SEQ ID NO 199] | 25 | 25 |

target: GLP-1 receptor (GLP-1R) (human, UniProt P43220 24-463); experiment: cell-based or functional assay

| Binder | Primary assay EC50 (cAMP), GLP-1R n1 [nM] | Primary assay EC50 (cAMP), GLP-1R n2 [nM] | Primary assay EC50 (cAMP), Mean pM GLP-1R [pM] |
| --- | --- | --- | --- |
| H[Aib]EGS[αMeF]TSDV[αMeS]S[αMeF]LEGEAA[αMeK]E[αMeF]IA[αMeF]VVK([PEG2′-PEG2′-Stearoyl])GG-NH2 [SEQ ID NO 198] | 0.041 | 0.015 | 27.9 |
| B1 | 0.19 | 0.063 | 125 |
| H[Aib]EGS[αMeF]TSDV[αMeS]S[αMeF]LEGEAA[αMeK]E[αMeF]IA[αMeF]VVK([PEG2′-Stearoyl])GG-NH2 [SEQ ID NO 197] | 0.12 | 0.034 | 79 |
| H[Aib]EGS[αMeF]TSDV[αMeS]S[αMeF]LEGEAA[αMeK]E[αMeF]IA[αMeF]VVK([PEG2′-PEG2′-PEG2′-Stearoyl])GG-NH2 [SEQ ID NO 199] | 0.029 | 0.0075 | 18.3 |
